Values belong to the binder of their own block, whether it stands above or below them.
How the values were obtained:
[1] = biological target: T1, O9; test: two-hybrid library CCNG1;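 further: natural log of median RNA to DNA barcode read ratio; higher means stronger binding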
T1 chain: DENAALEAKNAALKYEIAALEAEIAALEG

[2] = biological target: T2, O5; test: two-hybrid library CCNG1;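 further: natural log of median RNA to DNA barcode read ratio; higher means stronger binding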
T2 chain: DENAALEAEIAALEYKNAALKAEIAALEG

[3] = biological target: T3, O6; test: two-hybrid library CCNG1;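 further: natural log of median RNA to DNA barcode read ratio; higher means stronger binding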
T3 chain: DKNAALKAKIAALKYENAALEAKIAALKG

[4] = biological target: T4, O15; test: two-hybrid library CCNG1;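 further: natural log of median RNA to DNA barcode read ratio; higher means stronger binding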
T4 chain: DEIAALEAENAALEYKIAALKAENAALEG

[5] = biological target: T5, O12; test: two-hybrid library CCNG1
T5 chain: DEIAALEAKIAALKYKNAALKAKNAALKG

[6] = biological target: T6, O2; test: two-hybrid library CCNG1
T6 chain: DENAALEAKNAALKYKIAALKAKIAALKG

[7] = biological target: T7, O14; test: two-hybrid library CCNG1
T7 chain: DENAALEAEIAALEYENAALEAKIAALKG

[8] = biological target: T8, O11; test: two-hybrid library CCNG1
T8 chain: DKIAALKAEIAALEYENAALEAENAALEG

[9] = biological target: T9, O10; test: two-hybrid library CCNG1
T9 chain: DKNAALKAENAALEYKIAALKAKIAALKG

[10] = biological target: T10, O7; test: two-hybrid library CCNG1
T10 chain: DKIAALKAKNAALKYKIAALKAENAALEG

[11] = biological target: T11, O3; test: two-hybrid library CCNG1
T11 chain: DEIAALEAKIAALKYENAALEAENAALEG

[12] = biological target: T12, O13; test: two-hybrid library CCNG1
T12 chain: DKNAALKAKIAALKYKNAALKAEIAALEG

[13] = biological target: T13, O4; test: two-hybrid library CCNG1
T13 chain: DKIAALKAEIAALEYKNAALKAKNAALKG

[14] = biological target: T14, O8; test: two-hybrid library CCNG1
T14 chain: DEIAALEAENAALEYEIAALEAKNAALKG

[15] = biological target: T15, O16; test: two-hybrid library CCNG1
T15 chain: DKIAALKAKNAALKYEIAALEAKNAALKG

[16] = biological target: T16, O1; test: two-hybrid library CCNG1
T16 chain: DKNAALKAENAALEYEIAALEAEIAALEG

[17] = biological target: T17, 4H2614-AA; test: two-hybrid library CCmax; conditions: mean of both orientations
T17 chain: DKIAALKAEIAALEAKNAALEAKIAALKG

[18] = biological target: T18, 4H1198-AA; test: two-hybrid library CCmax; conditions: mean of both orientations
T18 chain: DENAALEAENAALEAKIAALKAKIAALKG

[19] = biological target: T19, 4H3922-AA; test: two-hybrid library CCmax; conditions: mean of both orientations
T19 chain: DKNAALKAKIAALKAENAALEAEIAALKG

[20] = biological target: T20, 4H3625-AA; test: two-hybrid library CCmax; conditions: mean of both orientations
T20 chain: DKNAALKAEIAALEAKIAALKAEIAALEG

[21] = biological target: T21, 4H2238-AA; test: two-hybrid library CCmax; conditions: mean of both orientations
T21 chain: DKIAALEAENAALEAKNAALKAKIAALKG

[22] = biological target: T22, 4H629-AA; test: two-hybrid library CCmax
T22 chain: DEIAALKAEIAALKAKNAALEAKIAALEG

[23] = biological target: T23, 4H327-AA; test: two-hybrid library CCmax; conditions: mean of both orientations
T23 chain: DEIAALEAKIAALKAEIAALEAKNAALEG

[24] = biological target: T24, 4H4033-AA; test: two-hybrid library CCmax; conditions: mean of both orientations
T24 chain: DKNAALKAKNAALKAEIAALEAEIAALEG

[25] = biological target: T25, 4H3605-AA; test: two-hybrid library CCmax; conditions: mean of both orientations
T25 chain: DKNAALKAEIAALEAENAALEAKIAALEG

[26] = biological target: T26, 4H2935-AA; test: two-hybrid library CCmax; conditions: mean of both orientations
T26 chain: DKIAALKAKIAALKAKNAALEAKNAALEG

[27] = biological target: T27, 4H2608-AA; test: two-hybrid library CCmax; conditions: mean of both orientations
T27 chain: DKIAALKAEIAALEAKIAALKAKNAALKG

[28] = biological target: T28, 4H1103-AA; test: two-hybrid library CCmax; conditions: mean of both orientations
T28 chain: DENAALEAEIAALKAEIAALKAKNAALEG

[29] = biological target: T29, 4H55-AA; test: two-hybrid library CCmax; conditions: mean of both orientations
T29 chain: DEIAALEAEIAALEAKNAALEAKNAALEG

[30] = biological target: T30, 4H1082-AA; test: two-hybrid library CCmax
T30 chain: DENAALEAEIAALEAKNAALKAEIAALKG

[31] = biological target: T31, 4H369-AA; test: two-hybrid library CCmax; conditions: mean of both orientations
T31 chain: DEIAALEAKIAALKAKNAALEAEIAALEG

[32] = biological target: T32, 4H2726-AA; test: two-hybrid library CCmax; conditions: mean of both orientations
T32 chain: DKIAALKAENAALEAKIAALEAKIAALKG

[33] = biological target: T33, 4H662-AA; test: two-hybrid library CCmax; conditions: mean of both orientations
T33 chain: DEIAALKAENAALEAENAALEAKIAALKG

[34] = biological target: T34, 4H2513-AA; test: two-hybrid library CCmax; conditions: mean of both orientations
T34 chain: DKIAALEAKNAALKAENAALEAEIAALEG

[35] = biological target: T35, 4H1405-AA; test: two-hybrid library CCmax; conditions: mean of both orientations
T35 chain: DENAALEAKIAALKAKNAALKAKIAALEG

[36] = biological target: T36, 4H481-AA; test: two-hybrid library CCmax; conditions: mean of both orientations
T36 chain: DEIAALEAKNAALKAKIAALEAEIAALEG

[37] = biological target: T37, 4H3664-AA; test: two-hybrid library CCmax; conditions: mean of both orientations
T37 chain: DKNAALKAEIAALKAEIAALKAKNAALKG

[38] = biological target: T38, 4H2536-AA; test: two-hybrid library CCmax; conditions: mean of both orientations
T38 chain: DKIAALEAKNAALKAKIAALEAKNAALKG

[39] = biological target: T39, 4H2211-AA; test: two-hybrid library CCmax; conditions: mean of both orientations
T39 chain: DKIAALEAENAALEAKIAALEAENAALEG

[40] = biological target: T40, 4H1350-AA; test: two-hybrid library CCmax; conditions: mean of both orientations
T40 chain: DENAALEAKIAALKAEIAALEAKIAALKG

[41] = biological target: T41, 4H850-bH; test: two-hybrid library CCNG1
T41 chain: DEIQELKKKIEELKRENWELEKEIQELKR

[42] = biological target: T42, 4H570-bH; test: two-hybrid library CCNG1
T42 chain: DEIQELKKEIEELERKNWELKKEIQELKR

[43] = biological target: T43, 4H3974-bH; test: two-hybrid library CCNG1
T43 chain: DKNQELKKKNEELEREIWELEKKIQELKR

[44] = biological target: T44, 4H3858-bH; test: two-hybrid library CCNG1
T44 chain: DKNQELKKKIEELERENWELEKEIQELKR

[45] = biological target: T45, 4H1544-bA; test: two-hybrid library CCNG1
T45 chain: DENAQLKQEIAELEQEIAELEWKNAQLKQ

[46] = biological target: T46, 4H1985-bA; test: two-hybrid library CCNG1
T46 chain: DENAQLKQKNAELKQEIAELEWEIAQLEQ

[47] = biological target: T47, 4H1373-bA; test: two-hybrid library CCNG1
T47 chain: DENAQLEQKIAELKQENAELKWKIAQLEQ

[48] = biological target: T48, 4H1348-bA; test: two-hybrid library CCNG1
T48 chain: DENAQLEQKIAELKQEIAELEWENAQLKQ

[49] = biological target: T49, 4H3974-bA; test: two-hybrid library CCNG1
T49 chain: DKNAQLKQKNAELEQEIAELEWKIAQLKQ

[50] = biological target: T50, 4H1899-bA; test: two-hybrid library CCNG1
T50 chain: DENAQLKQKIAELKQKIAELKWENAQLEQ

[51] = biological target: T51, 4H3817-bA; test: two-hybrid library CCNG1
T51 chain: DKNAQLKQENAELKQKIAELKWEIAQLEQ

[52] = biological target: T52, 4H850-bA; test: two-hybrid library CCNG1
T52 chain: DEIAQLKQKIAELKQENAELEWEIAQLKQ

[53] = biological target: T53, 4H3613-bA; test: two-hybrid library CCNG1
T53 chain: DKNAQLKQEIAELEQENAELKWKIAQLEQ

[54] = biological target: T54, 4H3628-bA; test: two-hybrid library CCNG1
T54 chain: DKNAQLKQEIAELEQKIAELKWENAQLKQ

[55] = biological target: T55, 4H1338-bA; test: two-hybrid library CCNG1
T55 chain: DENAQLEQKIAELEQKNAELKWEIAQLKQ

[56] = biological target: T56, 4H1449-bA; test: two-hybrid library CCNG1
T56 chain: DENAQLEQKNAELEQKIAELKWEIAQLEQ

[57] = biological target: T57, 4H1710-bA; test: two-hybrid library CCNG1
T57 chain: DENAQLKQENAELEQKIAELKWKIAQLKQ

[58] = biological target: T58, 4H3858-bA; test: two-hybrid library CCNG1
T58 chain: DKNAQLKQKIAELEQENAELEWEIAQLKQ

[59] = biological target: T59, 4H570-bA; test: two-hybrid library CCNG1
T59 chain: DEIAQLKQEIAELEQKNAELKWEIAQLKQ

interaction score [1]: -1.83 | interaction score [2]: -2.09 | interaction score [3]: -2.86 | interaction score [4]: -2.03 | interaction score [5]: -2.35 | interaction score [6]: 1.45 | interaction score [7]: -2.4 | interaction score [8]: -2.38 | interaction score [9]: -1.12 | interaction score [10]: -2.15 | interaction score [11]: -2.08 | interaction score [12]: -1.26 | interaction score [13]: -2.08 | interaction score [14]: -2.46 | interaction score [15]: -2.54 | interaction score [16]: -2.12
Binder: DKNAALKAENAALEYEIAALEAEIAALEG [O1]

interaction score [17]: 0.814 | interaction score [18]: -0.589 | interaction score [19]: 2.18 | interaction score [20]: -0.987 | interaction score [21]: -1.2 | interaction score [22]: -0.619 | interaction score [23]: -0.938 | interaction score [24]: -0.637 | interaction score [25]: 1.35 | interaction score [26]: -1.5 | interaction score [27]: 1.21 | interaction score [28]: -1.29 | interaction score [29]: -1.89 | interaction score [30]: -0.277 | interaction score [31]: -0.173 | interaction score [32]: -0.0246 | interaction score [33]: -0.82 | interaction score [34]: -0.261 | interaction score [35]: -1.13 | interaction score [36]: -1.09 | interaction score [37]: -1.83 | interaction score [38]: -1.58 | interaction score [39]: -0.726 | interaction score [40]: 0.509
Binder: DENAALEAEIAALEAKNAALKAEIAALKG [4H1082-AA]

interaction score [41]: -0.759 | interaction score [42]: 1.32 | interaction score [43]: -0.677 | interaction score [16]: -0.992 | interaction score [44]: 1.05
Binder: DKNQELKKKIEELERENWELEKEIQELKR [4H3858-bH]

interaction score [45]: -0.0537 | interaction score [46]: 0.203 | interaction score [47]: -0.825 | interaction score [48]: -0.532 | interaction score [49]: 1.12 | interaction score [50]: -0.794 | interaction score [51]: -0.561 | interaction score [52]: 1.4 | interaction score [53]: 0.511 | interaction score [54]: -0.607 | interaction score [55]: -0.0383 | interaction score [56]: -0.906 | interaction score [57]: -1.12 | interaction score [58]: 1.87 | interaction score [59]: -0.499
Binder: DENAQLEQKIAELEQKNAELKWEIAQLKQ [4H1338-bA]

— publication PMC10397247
